Bridge positions count the residues as written; N and C are the ends. Square brackets hold non-standard residues; d marks the D form. Primed or numbered codes have the meaning given here. Ends that are not written are not given here. * marks the point of attachment. NHBn(CF3)2 = C-terminal amide NH-Bn(CF3)2, a benzyl group carrying two CF3; NMeBn(CF3)2 = C-terminal N-methyl bis(trifluoromethyl)benzyl amide; NH(3,5-(CF3)2-benzyl) = FC(F)(F)c1cc(CN*)cc(C(F)(F)F)c1; NMeBn(3,5-(CF3)2) = CN(Cc1cc(C(F)(F)F)cc(C(F)(F)F)c1)*; OBzl(3,5-(CF3)2) = FC(F)(F)c1cc(CO*)cc(C(F)(F)F)c1; Glc″ = glucosyl on the serine side-chain oxygen; NH‑Bn(CF3)2 = C-terminal Bn(CF3)2 amide; OBn(OMe)2 = C-terminal OBn(OMe)2 ester; OBn(CF3)2 = C-terminal Bn(CF3)2 ester; Dmt = Cc1cc(O)cc(C)c1C[C@H](N)C(=O)O; NMe(benzyl) = CN(Cc1ccccc1)*; Nle = CCCC[C@H](N)C(=O)O; Aib = CC(C)(N)C(=O)O; NHBn = c1ccc(CN*)cc1; OBn = c1ccc(CO*)cc1
What was measured:
[1] = target: T1, human δ opioid receptor (human, UniProt P41143 1-372); test: cell-based or functional assay
[2] = target: T2, rat µ opioid receptor (rat, UniProt P33535 1-398); test: cell-based or functional assay
[3] = target: µ opioid receptor of the guinea pig isolated ileum (guinea pig, UniProt P97266 1-98); test: cell-based or functional assay
[4] = target: guinea pig NK1 receptor (guinea pig, UniProt P30547 1-407); test: cell-based or functional assay
[5] = target: T1, human δ opioid receptor; test: radioligand competition vs [3H]DPDPE, membranes of hDOR cells
[6] = target: T3, rat NK1 receptor (rat, UniProt P14600 1-407); test: radioligand competition vs [3H]substance P, membranes of rNK1 CHO cells
T3 construct: whole, on cells; Used as membrane preparations of transfected CHO cells; also called rNK1; rat neurokinin-1 receptor

[7] = target: T2, rat µ opioid receptor; test: radioligand competition vs [3H]DAMGO, membranes of rMOR cells
[8] = target: T4, human NK1 receptor (human, UniProt P25103 1-407); test: radioligand competition vs [3H]substance P, membranes of hNK1 CHO cells
T4 construct: whole, on cells; Used as membrane preparations of transfected CHO cells; also called hNK1; human neurokinin-1 receptor
T4 sequence (P25103 whole entry): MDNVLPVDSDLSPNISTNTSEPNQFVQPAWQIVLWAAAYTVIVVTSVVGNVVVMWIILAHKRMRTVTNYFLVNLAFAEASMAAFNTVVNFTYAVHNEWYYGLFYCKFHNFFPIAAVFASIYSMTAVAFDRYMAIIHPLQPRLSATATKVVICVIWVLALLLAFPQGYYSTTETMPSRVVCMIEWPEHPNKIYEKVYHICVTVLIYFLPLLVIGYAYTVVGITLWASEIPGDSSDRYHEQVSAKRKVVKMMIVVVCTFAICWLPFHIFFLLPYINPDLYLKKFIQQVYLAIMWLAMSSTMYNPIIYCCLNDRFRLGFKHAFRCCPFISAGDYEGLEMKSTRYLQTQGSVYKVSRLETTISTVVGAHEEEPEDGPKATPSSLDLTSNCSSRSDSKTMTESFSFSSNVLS

Sequence of guinea pig NK1 receptor (P30547 whole entry): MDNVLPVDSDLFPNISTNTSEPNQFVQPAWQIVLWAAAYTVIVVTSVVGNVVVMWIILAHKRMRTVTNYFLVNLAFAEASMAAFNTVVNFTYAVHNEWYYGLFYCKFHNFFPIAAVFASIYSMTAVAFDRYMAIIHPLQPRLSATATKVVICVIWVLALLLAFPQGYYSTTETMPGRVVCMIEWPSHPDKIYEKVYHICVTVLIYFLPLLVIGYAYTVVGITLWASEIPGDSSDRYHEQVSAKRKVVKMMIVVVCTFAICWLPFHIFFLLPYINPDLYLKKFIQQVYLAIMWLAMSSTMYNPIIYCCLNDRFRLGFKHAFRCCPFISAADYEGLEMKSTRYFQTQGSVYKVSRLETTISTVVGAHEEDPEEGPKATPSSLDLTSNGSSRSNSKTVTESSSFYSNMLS
T1 sequence (P41143 whole entry, stated change not applied): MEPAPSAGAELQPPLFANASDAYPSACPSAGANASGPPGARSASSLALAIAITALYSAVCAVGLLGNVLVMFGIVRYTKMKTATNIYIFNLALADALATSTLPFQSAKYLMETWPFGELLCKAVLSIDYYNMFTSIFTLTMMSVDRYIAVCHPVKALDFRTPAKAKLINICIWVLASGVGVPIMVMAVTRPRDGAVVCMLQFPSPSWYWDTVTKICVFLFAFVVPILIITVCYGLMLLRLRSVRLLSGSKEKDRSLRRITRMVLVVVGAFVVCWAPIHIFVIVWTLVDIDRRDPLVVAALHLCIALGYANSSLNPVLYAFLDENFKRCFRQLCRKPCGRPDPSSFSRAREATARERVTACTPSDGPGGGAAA
T3 sequence (P14600 whole entry): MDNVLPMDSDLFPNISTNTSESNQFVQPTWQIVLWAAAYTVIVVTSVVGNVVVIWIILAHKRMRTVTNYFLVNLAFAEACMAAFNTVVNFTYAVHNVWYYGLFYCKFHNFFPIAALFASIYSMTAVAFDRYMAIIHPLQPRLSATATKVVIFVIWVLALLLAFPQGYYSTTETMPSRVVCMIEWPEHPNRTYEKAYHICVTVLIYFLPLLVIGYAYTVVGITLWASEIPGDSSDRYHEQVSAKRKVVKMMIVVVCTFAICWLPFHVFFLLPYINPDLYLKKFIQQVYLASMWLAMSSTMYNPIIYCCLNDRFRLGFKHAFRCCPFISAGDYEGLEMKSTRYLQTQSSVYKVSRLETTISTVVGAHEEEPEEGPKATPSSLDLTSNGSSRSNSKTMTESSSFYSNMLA
T2 sequence (P33535 whole entry): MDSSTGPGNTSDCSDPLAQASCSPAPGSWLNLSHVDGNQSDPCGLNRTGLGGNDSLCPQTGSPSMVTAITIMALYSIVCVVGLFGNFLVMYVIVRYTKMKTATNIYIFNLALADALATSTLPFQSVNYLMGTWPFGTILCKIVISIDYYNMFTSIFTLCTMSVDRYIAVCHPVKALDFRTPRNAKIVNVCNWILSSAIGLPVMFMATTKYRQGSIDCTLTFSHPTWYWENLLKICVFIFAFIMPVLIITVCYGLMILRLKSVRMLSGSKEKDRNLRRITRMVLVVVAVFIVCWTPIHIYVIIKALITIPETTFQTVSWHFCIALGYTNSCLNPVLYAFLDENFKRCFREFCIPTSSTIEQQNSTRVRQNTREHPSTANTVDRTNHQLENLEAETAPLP
Sequence of µ opioid receptor of the guinea pig isolated ileum (P97266 whole entry): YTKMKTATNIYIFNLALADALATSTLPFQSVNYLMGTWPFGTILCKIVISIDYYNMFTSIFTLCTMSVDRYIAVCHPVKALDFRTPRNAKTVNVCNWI

B1: TyrDAlaGlyPheMetProLeuTrpOBn(CF3)2 (TY005) (peptide)
peptide: Y[dA]GFMPLW-{OBzl(3,5-(CF3)2)}
GTP binding hDOR EC50 [1]: 2.9 nM | GTP binding hDOR Emax [1]: 47.6% | GTP binding rMOR Emax [2]: 45.6% | GPI/LMMP opioid(mu) agonist IC50 [3]: 359 nM | GPI/LMMP SP antagonist Ke [4]: 24.7 nM | Ki [5]: 2.8 nM | Ki [6]: 0.29 nM

B2: TyrDAlaGlyPheMetAlaLeuTrpOBn(CF3)2 (TY020) (peptide)
peptide: Y[dA]GFMALW-{OBzl(3,5-(CF3)2)}
GTP binding hDOR Emax [1]: 26.4% | GTP binding rMOR Emax [2]: 51.4%

B3: TyrDAlaGlyPhePheProLeuTrpNHBn(CF3)2 (TY015) (peptide)
peptide: Y[dA]GFFPLW-{NHBn(CF3)2}
GTP binding hDOR EC50 [1]: 81.4 nM | GTP binding hDOR Emax [1]: 142% | GTP binding rMOR EC50 [2]: 176 nM | GTP binding rMOR Emax [2]: 64.4% | Ki [7]: 53.7 nM | Ki [5]: 12.5 nM | Ki [8]: 0.192 nM | Ki [6]: 0.98 nM

B4: TyrDAlaGlyPhePheProLeuTrpNMeBn(CF3)2 (TY017) (peptide)
peptide: Y[dA]GFFPLW-{NMeBn(3,5-(CF3)2)}
GTP binding hDOR EC50 [1]: 122 nM | GTP binding hDOR Emax [1]: 125% | GTP binding rMOR EC50 [2]: 349 nM | GTP binding rMOR Emax [2]: 62.4% | Ki [7]: 74.7 nM | Ki [5]: 26.5 nM | Ki [8]: 0.213 nM | Ki [6]: 0.57 nM

B5: TyrDCysGlyPheMetProLeuTrpOBn(CF3)2 (TY031) (peptide)
peptide: Y[dC]GFMPLW-{OBzl(3,5-(CF3)2)}
Ki [7]: 172 nM | Ki [5]: 55.4 nM | Ki [8]: 0.847 nM | Ki [6]: 7.06 nM

B6: Tyr[DCysGlyPheCys]ProLeuTrpNHBn(CF3)2 (TY039) (peptide)
peptide: Y[dC]GFCPLW-{NH(3,5-(CF3)2-benzyl)}
modifications: disulfide 2-5
notes: also called [D-Cys2, Cys5]
GTP binding hDOR EC50 [1]: 50.9 nM | GTP binding hDOR Emax [1]: 37% | GTP binding rMOR EC50 [2]: 118 nM | GTP binding rMOR Emax [2]: 20% | GPI/LMMP opioid(mu) agonist IC50 [3]: 10.1 % at 1 uM | GPI/LMMP SP antagonist Ke [4]: 434 nM | Ki [5]: 10.7 nM | Ki [6]: 556 nM

B7: TyrDAlaGlyPheNleProLeuTrpOBn(CF3)2 (TY018) (peptide)
peptide: YAGFXPLW
modifications: D-Ala at 2; Nle (norleucine) at 5 (X); C-terminal O-3,5-Bn(CF3)2 ester
GTP binding hDOR EC50 [1]: 4 nM | GTP binding hDOR Emax [1]: 131% | GPI/LMMP opioid(mu) agonist IC50 [3]: 372 nM | GPI/LMMP SP antagonist Ke [4]: 7.93 nM | Ki [5]: 1.8 nM | Ki [8]: 0.14 nM

B8: TyrDAlaGlyPheNleSer(OGlu)LeuTrpNHBn(CF3)2 (TY044) (peptide)
peptide: Y[dA]GF[Nle]S(Glc″)LW-{NH‑Bn(CF3)2}
GTP binding rMOR EC50 [2]: 380 nM | GTP binding rMOR Emax [2]: 85% | Ki [7]: 3370 nM | Ki [8]: 1.3 nM

B9: TyrDAlaGlyPheMetAibLeuTrpOBn(CF3)2 (TY022) (peptide)
peptide: Y[dA]GFM[Aib]LW-{OBn(CF3)2}
GTP binding hDOR Emax [1]: 28% | GTP binding rMOR EC50 [2]: 100 nM | GTP binding rMOR Emax [2]: 32%

B10: TyrDAlaGlyPheMet(O)ProLeuTrpOBn(CF3)2 (TY023) (peptide)
peptide: YAGFMPLW
modifications: D-Ala at 2; Met(O) (oxidized methionine) at 5; C-terminal O-3,5-Bn(CF3)2 ester
GTP binding hDOR Emax [1]: 52.8% | GPI/LMMP opioid(mu) agonist IC50 [3]: 154 nM | GPI/LMMP SP antagonist Ke [4]: 7.8 nM | Ki [5]: 5.08 nM | Ki [8]: 0.00015 nM | Ki [6]: 0.2 nM

B11: TyrDAlaGlyPheMetProLeuTrpNHBn (TY025) (peptide)
peptide: Y[dA]GFMPLW-NHBn
GTP binding hDOR EC50 [1]: 2.6 nM | GTP binding hDOR Emax [1]: 51.7% | GTP binding rMOR Emax [2]: 46.8% | GPI/LMMP opioid(mu) agonist IC50 [3]: 61.1 nM | GPI/LMMP SP antagonist Ke [4]: 9.9 nM | Ki [5]: 0.44 nM

B12: TyrDAlaGlyPheMetProLeuTrpNMeBn (TY026) (peptide)
peptide: Y[dA]GFMPLW-{NMe(benzyl)}
GTP binding hDOR EC50 [1]: 8.9 nM | GTP binding hDOR Emax [1]: 93% | Ki [5]: 0.32 nM | Ki [6]: 44.5 nM

B13: TyrDAlaGlyPheMetProLeuTrpNHBn(CF3)2 (TY027) (peptide)
peptide: Y[dA]GFMPLW-{NH(3,5-(CF3)2-benzyl)}
GTP binding hDOR EC50 [1]: 8.6 nM | GTP binding hDOR Emax [1]: 58% | GPI/LMMP opioid(mu) agonist IC50 [3]: 488 nM | Ki [6]: 7.27 nM

B14: TyrDAlaGlyPheMetProLeuTrpNMeBn(CF3)2 (TY028) (peptide)
peptide: Y[dA]GFMPLW-{NMeBn(CF3)2}
GTP binding hDOR EC50 [1]: 12.9 nM | GTP binding hDOR Emax [1]: 59% | GPI/LMMP opioid(mu) agonist IC50 [3]: 971 nM | Ki [5]: 2.15 nM | Ki [6]: 2.01 nM

B15: TyrDAlaGlyPheMetProLeuTrpOBn (TY029) (peptide)
peptide: Y[dA]GFMPLW-OBn
GTP binding hDOR EC50 [1]: 3.4 nM | GTP binding hDOR Emax [1]: 98% | GTP binding rMOR Emax [2]: 133% | GPI/LMMP opioid(mu) agonist IC50 [3]: 22.2 nM | GPI/LMMP SP antagonist Ke [4]: 5.1 nM | Ki [6]: 20.3 nM

B16: TyrDAlaGlyPheMetProLeuTrpOBn(OMe)2 (TY030) (peptide)
peptide: Y[dA]GFMPLW-{OBn(OMe)2}
GTP binding hDOR EC50 [1]: 0.8 nM | GTP binding hDOR Emax [1]: 61% | GPI/LMMP SP antagonist Ke [4]: 4.1 nM | Ki [5]: 0.93 nM | Ki [6]: 9.53 nM

B17: DmtDAlaGlyPheMetProLeuTrpNHBn(CF3)2 (TY032) (peptide)
peptide: [Dmt][dA]GFMPLW-{NH(3,5-(CF3)2-benzyl)}
GTP binding hDOR EC50 [1]: 1.2 nM | GTP binding hDOR Emax [1]: 24% | GTP binding rMOR EC50 [2]: 62 nM | GTP binding rMOR Emax [2]: 74% | GPI/LMMP opioid(mu) agonist IC50 [3]: 18.6 nM | GPI/LMMP SP antagonist Ke [4]: 7.5 nM | Ki [5]: 0.12 nM | Ki [8]: 0.008 nM | Ki [6]: 2.3 nM

B18: DmtDAlaGlyPheMetProLeuTrpOBn(CF3)2 (TY033) (peptide)
peptide: [Dmt][dA]GFMPLW-{OBzl(3,5-(CF3)2)}
GTP binding hDOR EC50 [1]: 0.73 nM | GTP binding hDOR Emax [1]: 200% | GPI/LMMP opioid(mu) agonist IC50 [3]: 100 nM | GPI/LMMP SP antagonist Ke [4]: 24.5 nM | Ki [5]: 0.22 nM | Ki [8]: 1.2 nM | Ki [6]: 0.96 nM

B19: TyrDAlaGlyPheMetProLeuTrpOH (TY043) (peptide)
peptide: Y[dA]GFMPLW-OH
GTP binding hDOR EC50 [1]: 0.51 nM | GTP binding hDOR Emax [1]: 62% | GPI/LMMP opioid(mu) agonist IC50 [3]: 272 nM | Ki [5]: 1.1 nM | Ki [6]: 9850 nM
